Patent publication US20160304617A1

Columns and labels:
[1] = molecular target: Human 5T4 full length (human) (UniProt Q13641); test: flow cytometry on recombinant MDA-MB-231-5T4 FL cells at 5 µg/ml
[2] = molecular target: Human 5T4 full length (human) (UniProt Q13641); test: flow cytometry on Rec-MDA-MB-231-5T4 cells (as the row is labelled), 5 µg/ml probe, anti-Fc FITC
[3] = molecular target: Human 5T4 full length (human) (UniProt Q13641); test: flow cytometry on MDAMB361 cells, 5 µg/ml probe, anti-Fc FITC
[4] = molecular target: Human 5T4 full length (human) (UniProt Q13641); test: flow cytometry on SKOV3 cells, 5 µg/ml probe, anti-Fc FITC
[5] = molecular target: Human 5T4 full length (human) (UniProt Q13641); test: flow cytometry on PA1 cells, 5 µg/ml probe, anti-Fc FITC
[6] = molecular target: Human 5T4 full length (human) (UniProt Q13641); test: flow cytometry on DLD1 cells, 5 µg/ml probe, anti-Fc FITC
[7] = molecular target: Human 5T4 full length (human) (UniProt Q13641); test: flow cytometry on MBA-MB-231 cells (as the row is labelled), 5 µg/ml probe, anti-Fc FITC
[8] = molecular target: Human 5T4 full length (human) (UniProt Q13641); test: flow cytometry on HT29 cells, 5 µg/ml probe, anti-Fc FITC
[9] = molecular target: Human 5T4 full length (human) (UniProt Q13641); test: flow cytometry on PC3 cells, 5 µg/ml probe, anti-Fc FITC
[10] = molecular target: Human 5T4 full length (human) (UniProt Q13641); test: flow cytometry on BxPC3 cells, 5 µg/ml probe, anti-Fc FITC
[11] = molecular target: Human 5T4 full length (human) (UniProt Q13641); test: flow cytometry on LNCaP cells, 5 µg/ml probe, anti-Fc FITC
[12] = molecular target: Human 5T4 full length (human) (UniProt Q13641); test: flow cytometry on A431 cells, 5 µg/ml probe, anti-Fc FITC

Sequence of UniProt Q13641 (Q13641 32-420): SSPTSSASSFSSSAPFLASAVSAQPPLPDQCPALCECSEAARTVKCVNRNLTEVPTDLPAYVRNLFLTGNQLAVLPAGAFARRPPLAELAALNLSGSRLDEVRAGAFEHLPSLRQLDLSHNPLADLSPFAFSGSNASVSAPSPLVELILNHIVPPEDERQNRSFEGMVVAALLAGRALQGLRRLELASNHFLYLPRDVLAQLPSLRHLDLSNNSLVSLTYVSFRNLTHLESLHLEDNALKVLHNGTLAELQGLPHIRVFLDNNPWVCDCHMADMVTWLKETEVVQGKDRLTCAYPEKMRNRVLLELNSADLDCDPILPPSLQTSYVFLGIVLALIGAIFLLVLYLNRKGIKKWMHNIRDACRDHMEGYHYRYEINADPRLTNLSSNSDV

fold less binding (against the anti-5T4 proteins) [1]: 200 fold | Median fluorescence intensity (MFI) [2]: 8 MFI | Median fluorescence intensity (MFI) [3]: 5 MFI | Median fluorescence intensity (MFI) [4]: 6 MFI | Median fluorescence intensity (MFI) [5]: 6 MFI | Median fluorescence intensity (MFI) [6]: 14 MFI | Median fluorescence intensity (MFI) [7]: 4 MFI | Median fluorescence intensity (MFI) [8]: 12 MFI | Median fluorescence intensity (MFI) [9]: 3 MFI | Median fluorescence intensity (MFI) [10]: 14 MFI | Median fluorescence intensity (MFI) [11]: 23 MFI | Median fluorescence intensity (MFI) [12]: 13 MFI
Substance: unrelated (control) Fc fusion protein
